Measurements reported in the nanobody polyreactivity screen of Harvey et al. (2022).

assay: yeast display, Sf9 membrane polyspecificity reagent, FACS + sequencing; frameworks hold sequencing errors
Outline: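 Galactose-induced (36–48 hours) yeast carrying a synthetic nanobody display library were exposed to 10% biotinylated, detergent-solubilized Sf9 membrane reagent at 4 °C for 1 hour. FACS followed streptavidin microbead enrichment, using low and high (top ~1%) gates for expression (anti-HA) and reagent binding (streptavidin). Colony PCR, MiSeq 2 × 250 sequencing and CDR-length filtering followed. Labels for polyreactivity reflect the gate of origin.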

Row | Sequence | polyreactivity (PSR sort gate)
1 | QVQLVESGGGLVQAGGSLRLSCAASGRIFYPNAMGWYRQAPGKERELVAAISKRGGRTYYADSVKGRFTISRDNAKNTVYLQMNSLNPEDTAVYYCATRWASYPRTGRYDYWGQGTQVTVSS | high polyreactivity
2 | QVQLVESWGGLVQAGGSLRLSCAASGSIFSVYAMGWYRQAPGKERELVAAITSGGGTKYADSLKGRFTISRDNAKNTVYLQMNSLKPEDTAVYYCAAESFSDGSPYNYWGQGTQVTVSS | low polyreactivity
3 | QVQLVESGGGLVQAGGSLRLSCADSGSTFTRYGMGWYRQAPGKERELVAAITTSGSSTYYADSVKGRYTISRDNAKNTVYLQMNSLKPEDTAVYYCAADWSSWGFDYWGQGTQVTVSS | low polyreactivity
4 | QVQLVESGGGLVQAGGSLRLSCAASGFIFVYYAMGWYRQAPGKERELVAAISKRGGNTYYADSVKGRFTISRDNAKNTVYLQMNSLKPEDTAVYYCAAGFTTRRGEYNYWGQGTQVTVSS | high polyreactivity
5 | QVQLVESGGGLVQAGGSLRLSCAASGGTFENYAMGWYRQPPGKERELVAAISSGGSTNYADSVKGRFTISRDNAKNTVYLQMNSLKQEDTAVYYCARYRVWGSTGHKLFHDDYWGQGTQVTVSS | low polyreactivity
6 | QVQLVESGGGLVQAGGSLRLSCAASGLIFGVNAMGWYRQAPGKERELVAGISGSTGSTYYADSVKGRFTISRDNAKNTLYVQMNSLKPEDSAVYYCAKRSRRRGYRYDYWGQGTQVTVSS | high polyreactivity
7 | QVQLVESGGGLVQAGGSLRLSCAASGRIFSYYAMGWYRQAPGKERELVATISYSGGSTYYADSVKGRFTISRDNAKNTVYLQMNSLKPEDTAVYYCAATRYPYYSFVRFPSRRFNYWGQGTQVTVSS | high polyreactivity
8 | QVQLEESGGGIVQAGGSLRLSCAASGRTFVTNAMGWYRKAPGKERELVATINWSGGRTHYADSVKGRFTISRDNAKNTVYLQMNSLKPEDTAVYYCAKASSRRYWTIRDGDYWGQGTQVSVSS | low polyreactivity
9 | QVQLVESGGGLVQAGGSLRLSCAASGLTFLYYAMGWYRQAPGKERELVAAITGSGGTTNYADSVKGRFTISRDNAKNTVYLQMNSLKPEDTAVYYCAARGRKYYTSLGYYYWGQGTQVTVSS | high polyreactivity
10 | QVQLVDSGGRLVQAGGSLRLSSPASGLIISAYAMGWYRQAPGKEMEFVAAISRSGGITYYADSVKGRFTISRDNAKNTVYLQMNSLKPEDTAVYYCNARLYDPTLKFGYWGQGTQVTVSS | high polyreactivity
11 | QVQLVESGGGIVQAGGSLRLSCAASGSNFVVNAMGWYRQAPGKERELVAAITQSGGSTFYADSVKGRFTISRDNAKNTVYLQMNSLIPEDTAVYYWGQGTQVTVSS | low polyreactivity
12 | QVQLVESGGGLVQAGGSLRLSCAASGATFTFYAMGWYRQAPGKERELVATINWSGGSTYYADSVKGRFTISRDNSKYTVYLQMNSMKPEDTAVFYCNAACPFKSVEYWGQGTQVTVSS | low polyreactivity
13 | QVQLVESGGGLVQAGGSHRLSCAASGFTFYRYAMGSYRQAPGKERELVAAITGGGSTYYADSVKGRFTISRDNAKNTVYLQMNSLKPVDTAVYYCNAYHIVIYDYWGQGTQVTVSS | low polyreactivity
14 | QVQLVESGGGLVQAGGSLRLSCAASGSIFEINAMGWYRQGPGKERELVAAITGSGGSTHYADSVKGRFTISRDNAKNTDYLQMNSLKPEDTAVYYGAAVPRYQDGYWGQGTQVTVSS | low polyreactivity
15 | QVQLVESGGGLVQAGGSLRLSCAASGSIFPSYAMGWYRLAPGKERELVATISSDGGTNYADSVKGRFTISRDNAKNTVYLQMYSLKPEDTAVYYCATRTTYGQSGSAGPRPYNYWGQGTQVTVSS | low polyreactivity
16 | QVQLVESGGGLVQAGGSLRLICAASGSTFFDYAMGGYRQAPGKEREFVADIYSNGGSTYYADSVKGRFTFSRDNAKNSVYLQMNSLKPEDTAGYYCAAVLRPRQGRRYDYWGQGTQVTVSS | low polyreactivity
17 | QVQLVESGGGLVQAGGSLRLSCAASGRIFKWYAMGWYRQAPGKERELVAVITVSGGSTTYADSVKGRFTISLDNAKNTVYLQMNSLKQEDTAVYYCNAVYYRSRFGTSIRYDYWGQGTQVTVSS | high polyreactivity
18 | QVQLVESGGGLVQAGGSIRLSCAASGFTFDAYAMGWYRQAPGKESELVAAITTSGGNTNYADSVKGRFTISRDNAKNTVYLQMNSLKPEDTAVYYCASDAAVEYGKISYDYWGQGTQVTVSS | low polyreactivity
19 | QVQRVESGGGLVQAGGRLRLSCAASGSIFFSKAMGWYRPAPGKERELVAGIRSGGITNYADSVKGRFTISRDNAKNTVSLQMNSLKPEDTAVYYCAKLKDHGRYAYAFDYWGQGTQVTVSS | low polyreactivity
20 | QVQLVESGGGLVQAGGSLRLSCAASGYTFRYYAMGWYRQAPGKERELVAAISSGGSTYYADSVKGRFTISRDNAKNTVYLQMNSLKPEDTAVYYCATGPRIRYDYWGQGTQVTVSS | high polyreactivity
21 | QVQLVESGGGLVQAGGSLRLSCAASGFIFGFYAMGWYRQAPGKERELVAAISWSGGSTYYADSVKGRFTISRDNAKNTVYLQMNSLKPEDTAGYYCAAYFYYLDDAVTYDYWGQGTQVTVSS | low polyreactivity
22 | QVQLVESGGGLVQAGGSLRLSCAASGFIFDYYAMGWYRQAPGKERELVAGISNGDTTYYADSVKGRFTISRDNAKNTVYLQMNSLKPEDTAVYYCNAKPFYWVLGGYDYWGQGTQVTVSS | low polyreactivity
23 | QVQLVESGGGLVQAGGSLRLSCAASGSIFRAYALGWYRQAPGEERELVAAISWRAGRTYYADSVKGRFTISRDNAKNTVYLQMNSLKPEDTAVYYCAARKRAQQGTRDHDYWGQGTQVTVSS | high polyreactivity
24 | QVQLVESGGGLVQAGGSLRLSCAASGSIFVSYAMGWYRQAPGKERELVAAITSIGTRTNYADSVKGRFTISRDNAKNTVYLPMNSLKPEDTAVYYCNAPRFWSRHGLRDYWGQGTQVTVSS | high polyreactivity
25 | QVQLVESGGGLDQAGGSLRLSCAASGIIFSQYAMGWYRQAPGKERELVAGITRSGGSTYYADSVKGRFTISRDNAKNTVYLQMNSLKPEDTAVYYCAAVQRYEYGYWGQGTQVTVSS | high polyreactivity
26 | QVQLVESGGGLVQAGGSLRLSCAASGRTFRNYAMGWYRQAPGKERELVAGITSGGSTNYADSVKGRFTISRDNAKNTVYLQMNSLKPEDTAVYYCNAVRPFYWFWYYGYWGQGTQVTVSS | low polyreactivity
27 | QVQLVESGGGLVQAGGSLRLSCAASGSIFDLIAMGWYRQAPGKERELVAAISSGGGTYYADSVKGRFTISRDNAKNTVYLQMNSLKPEDTAVYYCNRVTRWTYNYWGQGTQVTVSS | high polyreactivity
28 | QVQLVESGGGLVQAGGSLRLSCAASGRIFKDYAMGWYRQAPGKEREFVARISSRGGRTYYADSVKGRFTISRDNAKNTVYLQMNSLKPEDTAVYYCAVTTSPYRPTKFDYWGQGTQVTVSS | high polyreactivity
29 | QVQLVESGGGLVQAGGSLRLSCAASGIIFSGYAMGWYRQAPGKERELVAAITWGGGSTYYADSVKGRFTISRDNAKNTVYLQMNSLKPEDTAVYYCAATWWYEHVRYYSWGQGTQVTVSS | high polyreactivity
30 | QVQLVESGGGLVQAGGSLRLICAASGSTYHYAMGWYRQAPGKERELVASITWRGDTTYYADSVKGRFTISRDNAKYNVYLQMNSLKPEDTAVYYCAAYHFSFGWIRVDYWGQGTQVTVSS | high polyreactivity
